One may read the pKa as the negative logarithm of the acid dissociation constant.

This data set has as its target Cys61 (UniProt position 61, AGYSACFIGAL). Kind of data set: chemical modification. The conditions noted are these: room temperature; Reduced (dithiol) protein after DTT treatment and desalting; no ligand.

In the case of “Organic hydroperoxide resistance protein (Ohr, XfOhr) (Xylella fastidiosa)”, the pKa is given as 5.92 ± 0.11.

The record behind these values is article PMC5962072, “Structural insights on the efficient catalysis of hydroperoxide reduction by Ohr: Crystallographic and molecular dynamics approaches” (PLoS ONE, 2018).
